Experimental data from patent publication US20130336893A1 (Sanofi, published 2013).
Where no end group is shown, it is not given here. [ ]: non-standard residue; d: D form.

What was measured:
[1] = biological target: human glucagon receptor (human, UniProt P47871 26-477); test: cell-based or functional assay
[2] = biological target: human GLP-1 receptor (human, UniProt P43220 24-463); test: cell-based or functional assay

human glucagon receptor, sequence (P47871 26-477): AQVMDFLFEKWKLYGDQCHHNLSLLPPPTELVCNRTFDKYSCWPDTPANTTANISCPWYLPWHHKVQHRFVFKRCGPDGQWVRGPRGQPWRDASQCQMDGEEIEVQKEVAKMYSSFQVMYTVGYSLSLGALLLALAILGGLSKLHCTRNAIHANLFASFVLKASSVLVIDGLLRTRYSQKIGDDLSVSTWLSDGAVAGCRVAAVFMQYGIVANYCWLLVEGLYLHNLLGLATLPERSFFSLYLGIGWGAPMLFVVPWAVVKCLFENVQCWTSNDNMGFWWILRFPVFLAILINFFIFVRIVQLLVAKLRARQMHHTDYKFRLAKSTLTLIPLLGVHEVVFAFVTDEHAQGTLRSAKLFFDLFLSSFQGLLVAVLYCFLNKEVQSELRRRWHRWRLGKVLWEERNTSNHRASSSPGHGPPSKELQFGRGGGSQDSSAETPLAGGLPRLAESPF

Binder	EC50 hGlucagonR (cAMP formation) [1] [nM]	EC50 hGLP-1R (cAMP formation) [2] [nM]
H[dA]QGTFTSDLSKQMDSRRAQDFIEWLKNGGPSSGAPPPS-NH2 [SEQ ID NO: (40)]	1.18	0.0081
HGQGTFTSDLSKQMDSRRAQDFIEWLKNGGPSSGAPPPS-NH2 [SEQ ID NO: (11)]	2.32	0.0254
HAQGTFTSDLSKQMDSRRAQDFIEWLKNGGPSSGAPPPS-NH2 [SEQ ID NO: (39)]	0.683	0.0046
H[dS]QGTFTSDLSKQMDSRRAQEFIEWLKNGGPSSGAPPPS-NH2 (N-terminus assumed; SMILES CC[C@H](C)[C@H](NC(=O)[C@H](Cc1ccccc1)NC(=O)[C@H](CCC(=O)O)NC(=O)[C@H](CCC(N)=O)NC(=O)[C@H](C)NC(=O)[C@H](CCCNC(=N)N)NC(=O)[C@H](CCCNC(=N)N)NC(=O)[C@H](CO)NC(=O)[C@H](CC(=O)O)NC(=O)[C@H](CCSC)NC(=O)[C@H](CCC(N)=O)NC(=O)[C@H](CCCCN)NC(=O)[C@H](CO)NC(=O)[C@H](CC(C)C)NC(=O)[C@H](CC(=O)O)NC(=O)[C@H](CO)NC(=O)[C@@H](NC(=O)[C@H](Cc1ccccc1)NC(=O)[C@@H](NC(=O)CNC(=O)[C@H](CCC(N)=O)NC(=O)[C@@H](CO)NC(=O)[C@@H](N)Cc1c[nH]cn1)[C@@H](C)O)[C@@H](C)O)C(=O)N[C@@H](CCC(=O)O)C(=O)N[C@@H](Cc1c[nH]c2ccccc12)C(=O)N[C@@H](CC(C)C)C(=O)N[C@@H](CCCCN)C(=O)N[C@@H](CC(N)=O)C(=O)NCC(=O)NCC(=O)N1CCC[C@H]1C(=O)N[C@@H](CO)C(=O)N[C@@H](CO)C(=O)NCC(=O)N[C@@H](C)C(=O)N1CCC[C@H]1C(=O)N1CCC[C@H]1C(=O)N1CCC[C@H]1C(=O)N[C@@H](CO)C(N)=O) [SEQ ID NO: (37)]	0.0582	0.0759
H[dS]QGTFTSDLSKQFDSRRAQDFIEWLKNGGPSSGAPPPS-NH2 (N-terminus assumed; SMILES CC[C@H](C)[C@H](NC(=O)[C@H](Cc1ccccc1)NC(=O)[C@H](CC(=O)O)NC(=O)[C@H](CCC(N)=O)NC(=O)[C@H](C)NC(=O)[C@H](CCCNC(=N)N)NC(=O)[C@H](CCCNC(=N)N)NC(=O)[C@H](CO)NC(=O)[C@H](CC(=O)O)NC(=O)[C@H](Cc1ccccc1)NC(=O)[C@H](CCC(N)=O)NC(=O)[C@H](CCCCN)NC(=O)[C@H](CO)NC(=O)[C@H](CC(C)C)NC(=O)[C@H](CC(=O)O)NC(=O)[C@H](CO)NC(=O)[C@@H](NC(=O)[C@H](Cc1ccccc1)NC(=O)[C@@H](NC(=O)CNC(=O)[C@H](CCC(N)=O)NC(=O)[C@@H](CO)NC(=O)[C@@H](N)Cc1c[nH]cn1)[C@@H](C)O)[C@@H](C)O)C(=O)N[C@@H](CCC(=O)O)C(=O)N[C@@H](Cc1c[nH]c2ccccc12)C(=O)N[C@@H](CC(C)C)C(=O)N[C@@H](CCCCN)C(=O)N[C@@H](CC(N)=O)C(=O)NCC(=O)NCC(=O)N1CCC[C@H]1C(=O)N[C@@H](CO)C(=O)N[C@@H](CO)C(=O)NCC(=O)N[C@@H](C)C(=O)N1CCC[C@H]1C(=O)N1CCC[C@H]1C(=O)N1CCC[C@H]1C(=O)N[C@@H](CO)C(N)=O) [SEQ ID NO: (43)]	0.148	0.3
HSQGTFTSDLSKQMDSRRAQDFIEWLKNGGPSSGAPPPS-{NH‑(CH2)5‑OH} [SEQ ID NO: (50)]	0.0225	0.014
